In this test the target is fluorescently labeled isolated Grb2 C-SH3 domain. The test is described as follows: fluorescence polarisation; fluorescence anisotropy; PTP1B titrated into a solution of N-terminally fluorophore-labelled Grb2 construct; N = 2–4 independent titrations.

B1: PTP1B^1−321 (wild-type protein tyrosine phosphatase 1B, residues 1-321) (domain or fragment)
chain: MEMEKEFEQIDKSGSWAAIYQDIRHEASDFPCRVAKLPKNKNRNRYRDVSPFDHSRIKLHQEDNDYINASLIKMEEAQRSYILTQGPLPNTCGHFWEMVWEQKSRGVVMLNRVMEKGSLKCAQYWPQKEEKEMIFEDTNLKLTLISEDIKSYYTVRQLELENLTTQETREILHFHYTTWPDFGVPESPASFLNFLFKVRESGSLSPEHGPVVVHCSAGIGRSGTFCLADTCLLLMDKRKDPSSVDIKKVLLEMRKFRMGLIQTADQLRFSYLAVIEGAKFIMGDSSVQDQWKELSHEDLEPPPEHIPPPPRPPKRILEPHN
In the case of B1, the Kd was determined as 62 µM.

B2: PTP1B^1−401 (domain or fragment)
chain: MEMEKEFEQIDKSGSWAAIYQDIRHEASDFPCRVAKLPKNKNRNRYRDVSPFDHSRIKLHQEDNDYINASLIKMEEAQRSYILTQGPLPNTCGHFWEMVWEQKSRGVVMLNRVMEKGSLKCAQYWPQKEEKEMIFEDTNLKLTLISEDIKSYYTVRQLELENLTTQETREILHFHYTTWPDFGVPESPASFLNFLFKVRESGSLSPEHGPVVVHCSAGIGRSGTFCLADTCLLLMDKRKDPSSVDIKKVLLEMRKFRMGLIQTADQLRFSYLAVIEGAKFIMGDSSVQDQWKELSHEDLEPPPEHIPPPPRPPKRILEPHNGKCREFFPNHQWVKEETQEDKDCPIKEEKGSPLNAAPYGIESMSQDTEVRSRVVGGSLRGAQAASPAKGEPSLPEKDEDH
Regarding B2, the Kd came to 82.4 µM.

For the origin of these results see publication doi:10.1101/2024.07.16.603632.
